Square brackets hold non-standard residues; d marks the D form. Ends that are not written are not given here. Nva = CCC[C@H](N)C(=O)O

For series [1], the system named is Treg. The experiment in a line: Suppressive activity of Treg under Tofa. The class given is cell-based.
The subject of series [2] is mouse heart transplant model. The experiment in a line: Mouse heart transplant model, localized Tofa hydrogel with CTLA4-Ig. The series is classed as in vivo. The conditions noted are these: localized release around the transplanted heart, single administration. An excerpt:
FIG. 3A is a schematic of localized delivery of Tofacitinib (Tofa) microcrystals from a hydrogel (MTH) implanted in mice receiving heterotopic heart transplant. FIG. 3B is survival curves of C57Bl/6 mice receiving BALB/c heart transplants under the indicated treatments.
A peptide hydrogel (MAX8) that self-assembles at physiological conditions and encapsulated crystalline Tofa (cJAKi-Hydro) was used to assess that the localized release of a JAKi (Tofa) around the transplanted heart would have synergism with CTLA4-Ig as systemic Tofa administration (FIG. 3A).

Series [3] concerns dendritic cells. Description: Maturation of dendritic cells under Tofa. The series is classed as cell-based.
The test system of series [4] is full MHC mismatch (C57BL/6 to BALB/c) mouse heart transplantation model. Description: Mouse heart transplantation model, systemic Tofa with CTLA4-Ig. The class given is in vivo.
Series [5] can be described thus: Release of Ani2-NLCs from peptide gels in the absence of enzyme. The series is classed as physicochemical. The method, then: (§1) Preliminary experiments were conducted on the proteolytic stability of the peptides and the impact on the release of the encapsulated NLCs. To investigate protease-mediated release, comparative release rates of Ani2-NLCs were studied with respect to nVET2 and IVET1 gels in trypsin-rich and MMP12-rich environments. Ani2-NLCs are retained within the gels over extended periods of time due to their negative zeta potential that allows them to bind to the positively charged gel network.
(§2) Upon trypsinization, both IVET1 and nVET2 gels show faster release rates of Ani2-NLCs than those observed in the absence of the protease. […] These relative release trends of IVET1 and nVET2 gels are somewhat consistent with the degradation of the individual peptides by trypsin and MMP12. Trypsin hydrolyzes proteins at the carboxyl side of lysine and arginine amino acid residues and as such, the peptides IVET1 and nVET2 contain six cleavable sites with respect to trypsin. On the other hand, MMP12 recognizes a single cleavage site (PLG↓VR) within each of the peptide sequences. Thus, the observed rate of release of the NLCs is proportional to the number of protease-specific cleavage sites within the peptide sequence
At the end of 10 days, less than 20% of Ani2-NLCs were released in the absence of enzyme. Thus, two distinct release regimes of tofacitinib are attainable with simultaneous incorporation of the drug as microcrystalline deposits and as Tofa-NLCs.

Series [6] can be described thus: Release of microcrystalline tofacitinib from peptide gels (UV-Vis). The class given is physicochemical. The conditions noted are these: 32 mM microcrystalline deposits, after 10 days. The method, then:
The release rates of microcrystalline tofacitinib from select peptide gels (MAX8 and HLT2) was determined as in Majumder, P., et al., Small 2020, 16, 2002791, incorporated herein by reference (FIG. 18A). As such, the release rates were established for the enzyme cleavable peptides (nVET1 and IVET1) at two different drug loads—16 mM and 32 mM. The release of tofacitinib was quantified using UV-Vis spectroscopy (λ=285 nm). […] The release profile is thus dependent on the final concentration of drug loaded and consistent with crystal dissolution being rate-determining.

The subject of series [7] is trypsin. Description: Protease-mediated release of NLC from peptide gels, trypsin. The class given is physicochemical. The conditions noted are these: first 24 hours; for increase in release rate upon trypsinization: relative to absence of protease; for Ani2-NLCs released: with trypsin. Here is the method: FIGS. 10A and 10B show protease responsive LNp release. […] FIG. 10B is a graph of the release profiles of Ani2-NLC from Peptide-4 gels in response to trypsin.
IVET2—SEQ ID NO: 7; IVET1—SEQ ID NO: 8; nVET2—SEQ ID NO: 9; nVET1—SEQ ID NO: 10.
as §1, §2

For series [8], the target named is T1, MMP12 (Homo sapiens, UniProt P39900). The experiment in a line: Protease-mediated release of NLC from peptide gels, MMP12. The class given is physicochemical. The conditions noted are these: MMP12 treated gels. The method, then: as §1, §2
Series [9] addresses T1, MMP12. Description: Rheology of MMP12-treated peptide gels. Conditions: 150 ul, 1 wt % gels, 37° C., MMP12, 1×HBS pH 7.4, 12 days. The class given is physicochemical. The method, then: To provide further insight into the mechanistic effects of the gel release rates described above, the rheological properties of the MMP12-treated peptide gels were investigated. For this study, pre-formed IVET1 gels (150 ul, 1 wt %) were incubated at 37° C. with MMP12 (1×HBS, pH 7.4) and the storage modulus at 6.3 rad/s (obtained from frequency sweep measurements) was plotted at different time points for each gel. […] Despite peptide cleavage, the gels remained intact due to the stable cross-linked fiber network supported by the inter-hairpin hydrophobic contacts of the peptides upon self-assembly.

The nature of series [10]: Hydrogel toxicity after SQ injection in skin flap. The conditions noted are these: SQ injection after flap raise, visual monitoring.
Experimental: To this end, the condition of transplants was replicated by surgically separating the skin of the prospective area of injection (flap raise) followed by suturing the edges. After completion of the surgical procedure, empty hydrogel or Tofa containing hydrogel was injected SQ and the area monitored visually for any macroscopic sign of toxicity.
Series [11] is described as follows: Gel stiffness (storage modulus G′) after NLC encapsulation. The class given is physicochemical. Conditions: following encapsulation of neutral or negatively-charged NLCs. An excerpt:
FIGS. 6A-6C show LNp encapsulation in a hydrogel. FIG. 6A is a graph of the comparative storage moduli (G′) of MAX8 gels with and without Neut-NLCs and Ani2-NLCs. FIG. 6B is a graph of the cumulative release profiles of Neut-NLC and Ani2-NLC from MAX8 gels. FIG. 6C is an image of LNp retention by MAX8 gels. A lipophilic dye (pink) was encapsulated within the NLCs to quantify release after 5 days.
To improve particle retention within the gel, the nanoparticles were modified to achieve a slightly negative surface charge (the hydrogel network is positively charged) by adding a small percentage of anionic surfactant (Glycolic Acid Ethoxylate Oleyl Ether) together with the Gelucire 44/14. Two different ratios of these surfactants were used until similarly sized nanoparticles were achieved.

The mark [12] stands for this setting: absence of enzyme, end of 10 days.
Setting [13] is: absence of trypsin (control gel), first 24 hours.

T1 sequence (P39900 106-470, species assumed): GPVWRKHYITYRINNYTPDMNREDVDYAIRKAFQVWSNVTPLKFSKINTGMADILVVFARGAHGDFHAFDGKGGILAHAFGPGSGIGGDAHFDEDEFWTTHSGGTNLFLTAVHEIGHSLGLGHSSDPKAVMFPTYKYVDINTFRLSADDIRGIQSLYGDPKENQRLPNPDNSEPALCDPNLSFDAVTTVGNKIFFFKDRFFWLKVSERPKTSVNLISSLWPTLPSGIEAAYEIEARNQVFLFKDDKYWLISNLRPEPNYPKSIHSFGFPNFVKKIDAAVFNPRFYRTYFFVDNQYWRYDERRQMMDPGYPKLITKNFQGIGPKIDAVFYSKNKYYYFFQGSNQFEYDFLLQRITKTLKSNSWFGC

Turning to `C[C@@H]1CCN(C(=O)CC#N)C[C@@H]1N(C)c1ncnc2[nH]ccc12` [Tofa, 3-((3R,4R)-4-methyl-3-(methyl(7H-pyrrolo[2,3-d]pyrimidin-4-yl)amino)piperidin-1-yl)-3-oxopropanenitrile], the “suppressive activity of Treg” value in series [1] was “only minimally affected the suppressive activity of Treg”. The graft survival entry in series [2] is given as “as effective at synergizing with systemic CTLA4-Ig as 16 oral gavage administrations”. For the same compound, the “up-regulation of MHC-II molecules” value in series [3] (dendritic cells) was “did not prevent the up-regulation of MHC-II molecules”. Moreover, the “maturation of dendritic cells” value in [3] (upregulation of costimulatory molecules and secretion of pro-inflammatory cytokines) is on record as “very effective at preventing the maturation of dendritic cells”. Besides, in series [4] (Tofa+CTLA4-Ig), the “differentiation of TH1 effector T cells” value is listed as “inhibition of the differentiation of TH1 effector T cells” and the “regulatory T cells (Treg)” value is given as “accumulation of a high frequency of regulatory T cells”. In addition, in series [4] (Tofa+CTLA4-Ig, hearts kept ischemic for 4h before transplantation), the “graft survival with ischemic hearts” value is “improvement in survival was unaffected”. Also, the graft survival result in series [4] (combination with CTLA4-Ig, Tofa POD-1 to POD6, twice daily via oral gavage) is on record as “promoted long-term graft survival”.

As to “(nV)K(nV)E(nV)KVKV^DPPLGVRTK(nV)K(nV) ([Nva]K[Nva]E[Nva]KVKVPPLGVRTK[Nva]K[Nva]; also: P10 written ^DP (meaning not given here)) [nVET1]”, the Ani2-NLCs released result in series [5] (setting [12]) is given as “less than 20%”. The drug release result in series [6] is “less than 60%”.

On to “(nV)KTE(nV)KVKV^DPPLGVRTK(nV)K(nV) ([Nva]KTE[Nva]KVKVPPLGVRTK[Nva]K[Nva]; also: P10 written ^DP (meaning not given here)) [nVET2]”, for which, in series [7], the “increase in release rate upon trypsinization” value came out at 3 fold and the Ani2-NLCs released is 30%. In addition, the Ani2-NLCs released in series [5] (setting [13]) was 10%. Further, in [8], the “release rate of Ani2-NLCs” value is “intermediate between their respective trypsin-rich and protease-free gel environments”.

In the case of “IKVEIKVKV^DPPLGVRTKIKV (IKVEIKVKVPPLGVRTKIKV; also: P10 written ^DP (meaning not given here)) [IVET1]”, in series [9], the “storage modulus at 6.3 rad/s” value is reported as “relatively stable storage modulus”. Further, the “increase in release rate upon trypsinization” value in [7] is roughly 12 fold. For the same compound, the Ani2-NLCs released in series [7] is recorded as 17.4%; in series [5] (setting [12]), “less than 20%”; in series [5] (setting [13]) it was 1.5%. Also, in series [8], the “release rate of Ani2-NLCs” value is “intermediate between their respective trypsin-rich and protease-free gel environments”. Besides, the drug release result in [6] is reported as “less than 60%”.

Turning to “VKVKVKVKV^DPPTKVEVKVKV (VKVKVKVKVPPTKVEVKVKV; not fully specified (residue 10)) [MAX8]”, the “macroscopic sign of toxicity” value in [10] is given as “absence of any evidence of toxicity”. In [11], the gel stiffness result was “stiffness is maintained”.

The values are drawn from US20260069536A1, “COMPOSITIONS, SYSTEMS, AND METHODS FOR DELIVERY OF THERAPEUTICS” (THE JOHNS HOPKINS UNIVERSITY, priority 2022, published 2026).
